Results as given in the supplement of paper PMC7125110.
± gives the standard error. Variants at the floor of the assay were thinned out.

B1: glmS ribozyme (parent)
chain: AUAAAAGCGCCAGAACUACAGAAAUGUAGUUGACGAGGAGGAGGUUUAUCGAAUUUUCGGCGGAUGCCUCCAAA

What was measured:
Conditions in all cases: with glucosamine-6-phosphate
[1] = variants of: B1; assay: self-cleavage kobs at 640 uM GlcN6P; higher = faster cleavage; RNA array
Summary of the method: (§1)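 Tiles of sequenced MiSeq chips were imaged over ~14 h at 37 °C. On them, barcoded ribozyme variants had been transcribed in situ by E. coli RNA polymerase and were tracked via a hybridised Cy3 probe while glucosamine-6-phosphate (40 μM to 10 mM) in HEPES/KCl/Mg(OAc)2 buffer flowed in. Per-tile medians, normalised to baseline and to non-cleaving reference variants, were fit to one- or two-exponential decays for kobs, and weighted Michaelis–Menten fits gave kcat and KM.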

[2] = variants of: B1; assay: self-cleavage kobs at 2500 uM GlcN6P; higher = faster cleavage; RNA array
Summary of the method: as §1

[3] = variants of: B1; assay: self-cleavage kobs at 10000 uM GlcN6P; higher = faster cleavage; RNA array
Summary of the method: as §1

Variant	self-cleavage kobs at 640 uM GlcN6P [1] [s⁻¹]	self-cleavage kobs at 2500 uM GlcN6P [2] [s⁻¹]	self-cleavage kobs at 10000 uM GlcN6P [3] [s⁻¹]
AUAAAAGCGCCAGAACUACAGAAAUGUAGUUGACGAGGCGGAGGUAUAUCGAAUUGUCGGCGGAUGCCUCCAAA [A39C U46A U56G]	4.61e-05 ± 1.8e-05		
AUAAAAGCGCCAGAACUACAGAAAUGUAGUUCACGAGGAGGAGGUUUAUCGACUUUUCGGCCGAUGCCUCCAAA [G32C A53C G62C]	< 1e-05	< 1e-05	
AUAAAAGCGCCAGAGCUACAGAAAUGUAGUUGACGAGGAGGAGGCUUAUCGAAUUUUCGGCGGAUGCCUCUAAA [A15G U45C C71U]	0.000376 ± 0.00017	0.000625 ± 0.0003	
AUAAAAGCGCCAGAAAUACAGAAAUGUAGUUGACGAGGAGUAGGUUUAUCGAAUUUUCAGCGGAUGCCUCCAAA [C16A G41U G59A]	< 1e-05	< 1e-05	
AUAAAAGCGGCAGAACUACAGAAAUGUAGUUGAGGAGGAGUAGGAUUAUCGAAUUUUCGGCGGAUGCCUCCAAA [C10G C34G G41U U45A]	< 1e-05	< 1e-05	
AUAAAAGCGCCAGAACUACAGAAAUGUAGGUGGCGAGGAGGAGGUUUAUCGAAUUUCCGGCGGAUGCCUCCAAA [U30G A33G U57C]	< 1e-05	< 1e-05	< 1e-05
AUAAAAGCGCCUGAACUACAGAAAUGUAGUUGACGAGGAGGAGGUUUAUCGAAUUUUCGGCGGAUGUCUCUAAA [A12U C67U C71U]	0.000764 ± 0.0002	0.000592 ± 0.00018	
AUAAAAGCGCGAGAACUACAGAAAUGUAGUUGACGAGGAGGAGGCUUAUGGAAUUUUCGGCGGAUGCCUCCAAA [C11G U45C C50G]	< 1e-05	< 1e-05	
AUAAAUGCGCCAGGACUACAGAAAUGUAGUUGACGAGGAGGAGGUUUAUCGAAUUUUCGCCGGAUGCCUCCAAA [A6U A14G G60C]	< 1e-05		
AUAAAAGGGCCAGAACUACAGAAAUGUAGCUGACGAGGAGGAGGUUUAUCGAAUUUUCGGCGGCUGCCUCCAAA [C8G U30C A64C]	< 1e-05	< 1e-05	< 1e-05
AUAAAAGCGCCAGAACUACAGAAAUGUAGGUGACGAGGCGGAGGUUUAUCGAAUGUUCGGCGGAUGCCUCCAAA [U30G A39C U55G]	0.000198 ± 5.5e-05	0.000726 ± 0.00014	0.00144 ± 0.00047
AUAAAAGCGCCAGAACUACAGAAAUGUAGUUGACGAGGAAGAGUUUUAUCGAAUUUUCGGCGGAUGCCUCCAAA [G40A G44U]	< 1e-05		
AUAAAGGCGCCCGAACUACAGAAAUGUAGUUGACGAGGAGGAGGUUUAUCGAAUGUUCGGCGGAUGCCUCCAAA [A6G A12C U55G]	7.46e-05 ± 1.3e-05	0.000177 ± 3.7e-05	
AUAAAAGCGCCAAAACUACAGAAAUGUAGUGGUCGAGGAGGAGGUUUAUCGAAUUUUCGGCGGAUGCCUCCAAA [G13A U31G A33U]	< 1e-05	< 1e-05	
AUAAAAGCGCCAGAAUUACAGAAAUGUAAUGGACGAGGAGGAGGUUUAUCGAAUUUUCGGCGGAUGCCUCCAAA [C16U G29A U31G]	0.00216 ± 0.00066	0.0232 ± 0.011	
AUAAAAGCGCCAGAAGUACAGAAAUGUAGUUGACGAGGAGGAGGUUUAUCGAAUUUUCCGUGGAUGCCUCCAAA [C16G G59C C61U]	< 1e-05	< 1e-05	
AUAAAAGCGCCAGAACUACAGAAAUGUAGUUGUCGAGGAGCAGGUUUAUCGCUUUUUCGGCGGGGGCCUGCAAA [A33U G41C A52C A53U A64G U65G C70G]	< 1e-05		
AUAAAAGCGCCAGAACUACAGAAAUGUAGUUGACGAGGAGGAGGUUUGUCGACUUUUUUGCGGAUGCCUCCAAA [A48G A53C C58U G59U]	< 1e-05		
AUAAAAGCGCCAGAACUACAGAAAUGUAGUUGACGAGGUGGAGGUUUAUCGGAGUUCCGGCGGAUGCCUCCAAA [A39U A52G U54G U57C]	3.84e-05 ± 1.7e-05	0.00016 ± 4.9e-05	
AUAAAAGCGCCAGAAAUACAGAAAUGUAGUUGACGAGGAGAAUGUUUAUCGAAUUUUCGGGGGAUGCUUCCAAA [C16A G41A G43U C61G C68U]	< 1e-05	< 1e-05	
AUAAAAGCGCCAGAACUACAGAAAUGUAGUUGCCGAGGAGGAGGGUUAUCGAAUCUUCGGCGGAUGCCUCCAAA [A33C U45G U55C]	< 1e-05		
AUAAAAGCGCCAGAACUACAGAAAUGUAGUUGACGAGGAGGAGGUUUAUUGAAUUAUCGGCGGAUUCCUCCAAA [C50U U56A G66U]	< 1e-05	< 1e-05	

Variant	self-cleavage kobs at 640 uM GlcN6P [1] [s⁻¹]	self-cleavage kobs at 2500 uM GlcN6P [2] [s⁻¹]	self-cleavage kobs at 10000 uM GlcN6P [3] [s⁻¹]
AUAAAGGCGCCAGAACUACAGAAAUGUAGUUGACGUGGAGGGGUUUUAUCGAAUUUUCGCCGGAUGCCUCCAAA [A6G A36U A42G G44U G60C]	< 1e-05		
AUAAAAGCGCCGGAACUACAGAAAUGUAGUUGACGAGGAGGAGGUUUCUCGAAUUUUCGGCGGAUGCGUCCAAA [A12G A48C C68G]	< 1e-05	< 1e-05	
AUAAAAGCGCCAGAAAUACAGAAAUGUAGGUGACAAGGAGGAGGUUUAUCGAAUUUUCGGCGGAUGCCCCCAAA [C16A U30G G35A U69C]	< 1e-05	< 1e-05	
AUAAAAGCACCAAAACUACAGAAAUGUAGUUGACGAGGAGGAGGUUUGUCGAAUUUUCGGCGGAUGCCUCCAAA [G9A G13A A48G]	< 1e-05	< 1e-05	
AUAAAAGCGCCAGAACUACAGAAAUGUAGUUGACGUGGAGGAGGUUUAUCUAAUUGUCAGCGGAUACCUCCAAA [A36U G51U U56G G59A G66A]	< 1e-05		
AUAAAAGCUCCAGAACUACAGAAAUGUAGUUGACGAGGAGGAGGUUUAUCGAACUUUCGGCGGAUGCUUCCAAA [G9U U54C C68U]	< 1e-05		
AUAAAAGCGCCAGAACUACAUAAAUGUAGUUGACGAGGAGGAGGUUUAUCGAACUUUCGGCGGAUGCCCCCAAA [G21U U54C U69C]	0.00201 ± 0.00057	0.000416 ± 0.00014	
AUAAAAGUGCCAGAACUACAGAAAUGUAGUUGACGAGGAGGAAGUUUAUCGAACUUUCGGCGGAUGCCUCCAAA [C8U G43A U54C]	< 1e-05		
AUAAAAGCGGCAGAACUACAGAAAUGUAGUUGACGGGGAGGAGGGUUAACGAAUUUUCGGCGGAUACCUCUAAA [C10G A36G U45G U49A G66A C71U]	< 1e-05	< 1e-05	
AUAAAAGCGCCGGUAGUACAGAAAUGUAGUUGACGAGGAGGAGGUAUAUCGAUUUUUCGGCGGAUGCCUCCAAA [A12G A14U C16G U46A A53U]	< 1e-05		
AUAAAAGCGCCAGGACUACAGAAAUGUAGUUGACGUGGAGAAGGUUUAUCGAAUUUUCGGCGGAUGCCUCCAAA [A14G A36U G41A]	< 1e-05	< 1e-05	< 1e-05
AUAAAAGCGCCAGAACUACAGAAAUGUAUUUGACGAGGAGGAGGUUUAUCGAAUUUUCGGCGGAUGUCUUCAAA [G29U C67U C70U]	4.16e-05 ± 1.2e-05	9.35e-05 ± 1.8e-05	
AUAAAAACGCCAGAACUACAGAAAUGUAGUUGACGAGGAGGAGGUUUAUCAAAUUUUAGGCGGAUGCCUCCAAA [G7A G51A C58A]	< 1e-05	< 1e-05	
AUAAAAACGCCAGAACUACAGAAAUGUAUUUGAUGAGGAGGAGGUUUAUCGAAUUUUCGGCGGAUGCCUCCAAA [G7A G29U C34U]	< 1e-05		
AUAAAAGCGCCAGGACUACAGAAAUGUAGUUGACGAGGUGUAGGUUUAUCAAAUUUUCAGCGGAUGCCUCCAAA [A14G A39U G41U G51A G59A]	< 1e-05		
AUAAAAGCGACAGACCUACAGAAAUGUAGUUGACGAGGAGGAGGCUUAUCGAAUUUUCGGCGGAUGCCUCCAAA [C10A A15C U45C]	< 1e-05		
AUAAAAUCGCCAGAACUACAGAAAUGUAGUUGAUGAGGAGGAGGUUUAUCGUAUUUUCGGCGGAUGCCUCCAAA [G7U C34U A52U]	< 1e-05	< 1e-05	
AUAAAAGCGCCAGAACUACAGAAAUGUAGUGGACGAGGAGGAGGUUUAUCAAAUUUUCGGCGGAUGCCUCCAAA [U31G G51A]	< 1e-05		
AUAAAAGUGCCAGAACUACAGAAAUGUAGUUGACAAGGAGGAGGUUUAACGAAUUUUCGGCGGAUGCCUCCAAA [C8U G35A U49A]	< 1e-05		
AUAAAAUCGCCAGAACUACAGAAAUGUAGUUGACGAGGAGGAGGUUUAUCGAAUUUUGGGCGGAUGCCUCCAAA [G7U C58G]	< 1e-05		
AUAAAAGCGCGAGAAAUACAGAAAUGUAGUUGACGAGGAGGAUGUUUAUCGAAUUUUCGGCGGAUGCCUCCAAA [C11G C16A G43U]	< 1e-05		
AUAAAAGCGCCAGAACUACAGAAAUGUAGUUGAGGAGGAGGAGGUUUAUCGAAUUUUCGGUGGAUGCCUGCAAA [C34G C61U C70G]	< 1e-05	< 1e-05	
